Data published in US20160311918A1, “Anti-Ron Monoclonal Antibodies as a Cytotoxic Drug Delivery System for Targeted Cancer Therapy” (TEXAS TECH UNIVERSITY SYSTEM, priority 2013, published 2016).
Where “and” joins values, the source holds several entries; their conditions need not be identical. Identical values can stand only once.

What was measured:
[1] = tested on: CRC cell-mediated tumor growth; experiment: Mouse xenograft CRC models, single dose, all three lines; format: in vivo; conditions: single dose 20 mg/kg
Description: Mouse xenograft CRC model and anti-RON ADC treatment: All mice studies were approved by the institutional animal care committee. Female athymic nude mice at 6 weeks of age (Taconic, Cranbury, N.J.) were injected with 5×10^6 HT29-Luc2, HCT116-luc2, or SW620 cells in the subcutaneous space of the right flank as previously described (18,33). Mice were randomized into different groups (five mice per group). […] The single-dose group received a tail vein injection of 20 mg/kg Zt/g4-DM1 in 0.1 ml PBS followed by observation for 28 days. The multi-dose study was performed by treating mice with Zt/g4-DM1 at 1, 3, 7, 10, and 15 mg/kg every four days for a total of five injections. Bioluminescence from individual tumors was measured every four days using Caliper IVIS image system (PerkinElmer). Tumor volumes from SW620-derived tumors were measured according to a formula: V=pi/6×1.58×(length×width)^3/2 (18,33). Animals were euthanized when tumor volumes exceeded 2000 mm^3 or if tumors became necrotic or ulcerated through the skin.
The inventors first determined the efficacy of a single dose of Zt/g4-DM1 at 20 mg/kg body weight on tumors derived from HCT116, HT29, and SW620 cells. Tumor growth by HCT116-luc2 and HT29-luc2 cells was measured by bioluminescence emitted from tumor cells. SW620-mediated tumors were evaluated by tumor volume (18,34). […]

[2] = In vivo toxicity in athymic nude mice; design: species or system mouse
Description: FIGS. 6A to 6C show the toxicity of Zt/g4-DM1 in vivo. Body weight was measured every four days during the period of Zt/g4-DM1 treatment. FIG. 6A: Effect of multiple doses of Zt/g4-DM1 on mouse body weight was determined by administration of Zt/g4-DM1 at 1, 3, 7, 10, 15 mg/kg every four day with a total of 5 injections. Mice were weighed and monitored for a total of 31 days. FIG. 6B: Effect of a single dose of Zt/g4 at 20 mg/kg on mouse body weight was determined using mice bearing HT29, HCT116, or SW620-derived tumors. Body weight was monitored up to 28 days. FIG. 6C: Effect of high doses of Zt/G4-DM1 on mouse body weight was analyzed by tail vein injection at 20, 40 and 60 mg/kg to Balb/c mice. Mice were euthanized at day 21. In all cases, the average body weight of mice before Zt/g4-DM1 injection was 19.8±3.6 grams (5 mice per group) and set as 100%;
In vivo toxicity studies: Acute toxicity with maximum tolerated dose was determined in Balb/C mice (four mice per dose) by a single tail vein injection of Zt/g4-DM1 at 20, 40, and 60 mg/kg body weight. Toxicity associated with different therapeutic doses was evaluated in athymic nude mice bearing HT29 tumor xenograft (five mice per dose). […] Toxicity was assessed by observing mouse behavior, weight loss, and survival.
Toxic effect of Zt/g4-DM1 on mice. Three studies using two different types of mice were performed to study Zt/g4-DM1 on animal behavior and body weight. The first study addressed the impact of multi-doses of Zt/g4-DM1. Athymic nude mice were injected five times with 1, 3, 5, 7, 10, 15 mg/kg of Zt/g4-DM1 and monitored every four days for a total period of 31 days. […] The second study observed the effect of a single dose of Zt/g4-DM1 at 20 mg/kg in nude mice bearing tumors derived from HT29, HCT116, and SW620 cells. […] The third study involved a single-dose injection of Zt/g4-DM1 at 20, 40, and 60 mg/kg in Balb/c mice monitored for 24 days (FIG. 6C). […] Also, a moderate reduction of about 6% body weight was observed within the first four days after 60 mg/kg Zt/g4-DM1 injection. […]

RON-β chain (mature RON) = target: T1, RON-β chain (mature RON) (Homo sapiens, UniProt Q04912); experiment: Western blot of RON expression in CRC cells; format: cell-based; conditions: 36 h after treatment, 5 μg/ml
T1 construct: We selected CRC cell lines LoVo, DLD1, HT29, HCT116, and SW620 expressing variable levels of RON as the cellular model; host or cells: HCT116, HT29, SW620

[3] = Stability of Zt/g4-DM1 at 37° C. by HIC (DAR); format: physicochemical
Text: FIGS. 1A to 1C show the generation and characterization of anti-RON ADC Zt/g4-DM1. FIG. 1A: Schematic representation of Zt/g4-DM1 structure: Zt/g4 is a mouse mAb specific to the RON sema domain (18). DM1 was conjugated to Zt/g4 by non-reducible thioether linkage (SMCC) through lysine residues in the antibody molecule. FIG. 1B: HIC analysis of the number of DM1 conjugated to Zt/g4: Individual Zt/g4-DM1s with different numbers of DM1 (0 to 8) are marked as P0 to P8. FIG. 1C: Stability of Zt/g4-DM1. Zt/g4-DM1 was kept at 37° C. for 30 days. Samples analyzed at different time-points with the average DARs were shown;
Analysis of Zt/g4-DM1 conjugation and its stability: The conjugation of DM1 to Zt/g4 was verified by hydrophobic interaction chromatography (HIC) using a Varian Prostar 210 Quaternary HPLC system coupled with a TSK butyl-NPR 4.6×3.5 column (Tosoh Biosciences (Prussia, Pa.) (31). The average DARs were calculated from the integrated areas of the DAR species. This method also was used to determine the stability of Zt/g4-DM1 at 37° C.
The stability of Zt/g4-DM1 was determined by incubating the conjugates in vitro at 37° C. for 30 days. DAR changes were measured by HIC from different time-points.

[4] = tested on: human pancreatic cancer cells; experiment: PDAC cell viability in combination with chemotherapeutics; format: cell-based; conditions: in vitro, chemotherapeutics including gemcitabine
Description: In vitro cell viability and death assays: Cell viability after treatment of Zt/g4-DM1, chemotherapeutics, and their combinations was determined by the MTT assay. Cell death was determined by the trypan blue exclusion assay.
FIGS. 10A to 10D are graphs that show the effect of Zt/g4-DM1 on pancreatic cancer cell cycle, viability, and apoptotic death. […] FIG. 12 are graphs that show synergism between Zt/g4-DM1 and chemotherapeutics by isobolograms.

[5] = five injections of 1, 3, 5, 7, 10, 15 mg/kg, 31 days

T1 sequence (Q04912 310-1400 limits assumed): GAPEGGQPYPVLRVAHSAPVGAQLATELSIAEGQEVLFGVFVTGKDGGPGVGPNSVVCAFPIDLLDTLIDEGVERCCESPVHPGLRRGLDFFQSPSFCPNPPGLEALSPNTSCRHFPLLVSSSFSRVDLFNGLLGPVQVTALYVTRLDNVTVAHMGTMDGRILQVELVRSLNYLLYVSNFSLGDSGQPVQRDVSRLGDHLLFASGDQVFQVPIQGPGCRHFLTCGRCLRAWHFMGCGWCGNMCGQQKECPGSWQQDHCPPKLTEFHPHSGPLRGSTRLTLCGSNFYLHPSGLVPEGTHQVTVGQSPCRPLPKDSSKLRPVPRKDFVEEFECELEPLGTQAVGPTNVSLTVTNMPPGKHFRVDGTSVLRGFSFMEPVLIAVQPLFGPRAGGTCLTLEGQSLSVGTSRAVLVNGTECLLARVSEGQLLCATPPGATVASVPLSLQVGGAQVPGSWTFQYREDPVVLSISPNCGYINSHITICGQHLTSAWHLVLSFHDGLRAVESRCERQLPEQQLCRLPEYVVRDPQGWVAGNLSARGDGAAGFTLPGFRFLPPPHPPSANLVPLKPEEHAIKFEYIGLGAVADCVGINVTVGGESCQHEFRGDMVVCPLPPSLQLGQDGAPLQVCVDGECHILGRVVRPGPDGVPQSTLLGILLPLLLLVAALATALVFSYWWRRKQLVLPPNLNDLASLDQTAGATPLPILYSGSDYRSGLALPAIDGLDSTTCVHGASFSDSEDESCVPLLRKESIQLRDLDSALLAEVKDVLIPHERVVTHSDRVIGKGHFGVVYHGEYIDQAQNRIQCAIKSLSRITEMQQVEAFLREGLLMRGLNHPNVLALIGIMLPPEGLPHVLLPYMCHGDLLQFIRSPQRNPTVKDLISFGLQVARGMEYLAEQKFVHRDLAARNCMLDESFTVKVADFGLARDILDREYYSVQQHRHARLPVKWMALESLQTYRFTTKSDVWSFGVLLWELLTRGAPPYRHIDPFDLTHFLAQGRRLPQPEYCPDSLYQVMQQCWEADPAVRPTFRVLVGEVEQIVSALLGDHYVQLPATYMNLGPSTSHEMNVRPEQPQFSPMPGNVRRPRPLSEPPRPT
T1 sequence (Q04912 25-304 limits assumed): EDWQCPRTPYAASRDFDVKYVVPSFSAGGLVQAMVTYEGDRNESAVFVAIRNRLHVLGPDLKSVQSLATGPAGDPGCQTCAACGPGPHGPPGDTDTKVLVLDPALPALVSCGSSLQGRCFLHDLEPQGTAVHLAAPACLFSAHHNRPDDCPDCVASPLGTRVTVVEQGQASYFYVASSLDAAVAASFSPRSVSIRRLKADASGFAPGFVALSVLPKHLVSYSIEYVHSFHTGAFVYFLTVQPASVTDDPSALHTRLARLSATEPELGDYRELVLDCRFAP

B1: Zt/g4-DM1: anti-RON mouse mAb Zt/g4 conjugated to maytansinoid DM1 via non-reducible thioether linkage (SMCC), DAR about 4:1 (conjugate)
VH: EVQLQQSGAELVKPGASVKLSCTTSGFNIIDTYIHWVNQKPDQGLEWIGRIDPADGNRKSDPKFQVKATITVDTSSNTAYLQLSSLTSGDTAVYYCARGYGNLNAMDSWGQGTSVTVSS
VL: DIQMNQSPSSLSASLGDTITITCHASQNINVWLNWYQQKPGNIPKLLIYKASNLHTGVPSRFSGSGSGTGFTLTISSLQPEDIATYYCQQGQSYPLTFGGGTKLEIK
duration of tumor growth delay [1]: up to 20 days
duration of efficacy without signs of tumor regrowth ([1]; day 4 to day 16): up to 12 days
average body weight [2, 5]: comparable to that of control mice with no differences
mouse behavior [2, 5]: behaved normally
behavior and body weight ([2]; single dose 20 mg/kg, tumor-bearing nude mice): No changes in behavior or body weight were observed
RON-β chain detected (RON-β chain (mature RON)): Less than 20%
time stable at 37° C. [3]: up to 30 days
peak 5 share of conjugates at day 30 ([3]; 25.39% at day 0): 20.06%
peak 4 share of conjugates at day 30 ([3]; 39.05% at day 0): 32.72%
reduction in DAR after 30 days ([3]; day 30 vs day 0): 6.4% and 6.5%
average DAR at day 30 ([3]; in vitro, HIC): 3.484
combination effect with chemotherapeutics on PDAC cell viability [4]: synergistic effect
